Data: the DeepSol protein solubility set

Test: soluble on expression in E. coli; label from the status in PepcDB or PDB records

Soluble on expression in E. coli, soluble:
MLEQILLGTYTRRASQGIYKIALDTTQGRLTEATLLLEETSPTYLALSQKGELFSVTSVDGEGGTAAYQPEMDHFNLLNKVTEEGAPPCYVAVDENRQLVYAANYHQGIVHVYRILEDGSLEDADKVIHTEPTGPHENQNNAHVHYTDLTPDQRLVVCDLGTDRVYTYNVSLDGKLSEIAQFVTEPGTGPRHLVFHPTKSLAYLFGELDSTVSVLSYDETDGSFTELQKVSTLPADYDAFNGGAAIRISSDGRFLYASNRGHNSIAVYAVSENGEAIERIQLISTEGDIPRDFDLDPSEDFIVVANQDSDNLTLYRRNQETGLLEMIQKDVAVPECVCVLFVLEHHHHHH, MLFDMLHSFHESRVIKSHHNLTQQPVSTFLLMGLDNSGKRKLSTTRTDGMMVVIVNHKTKTMTLCSLLRDTFVKIHSQQYHGYQRIESAYTYGGDAAAIATVEHYLNLPIDYYLTVNWDGFIRAIDDIGPVEVNVDRDFIGQDYWGKPEKFKAGLQSMSGARALAYARERHIDNDQHRGFRQQAVFYAMVKRLNQEGLSSKGAKVVGDLKDQMRTNLTNHDMLTLFKSRKTFKRYRVKRLTFQWRTFDVAGRSMVEVYPDSRVQVSRQLQAAAGLRPDLPSQTFTTNGHYRYASDESVESKADEAKADTHYGQSHVYVGHAGNTTIGKLPAAVPLKNGFRVSDRTETMYTVHLEHHHHHH, MLFSMESILSSTKPKLEPPPKLEPEVTINEQVVDLPRSNTRLSEPSTSASVLEHDLKFGESRKRSRSLGDEPTEDEDGVPVRKANKRNHSTSSAADSSSDDAKDDDDDDDSTSRKSMSGHRKSSHAKPPYSYIALIAMSILNSPEKKLTLSEICEFIINKFEYYKEKFPAWQNSIRHNLSLNDCFVKVARGPGNPGKGNYWALDPNCEDMFDNGSFLRRRKRYKKNSDTYHEMMSHHPMPFPPFLPQGMPFPPRMMHPMANIPMLGHPMNPRAVPNMPAFFIPQNIDSQKLLSMMASRIMPMDAPVSSGQKRTSSSSSPNENGSSAVSDKLSA, MLIIETLPLLRQQIRRLRMEGKRVALVPTMGNLHDGHMKLVDEAKARADVVVVSIFVNPMQFDRPEDLARYPRTLQEDCEKLNKRKVDLVFAPSVKEIYPNGTETHTYVDVPGLSTMLEGASRPGHFRGVSTIVSKLFNLVQPDIACFGEKDFQQLALIRKMVADMGFDIEIVGVPIMRAKDGLALSSRNGYLTAEQRKIAPGLYKVLSSIADKLQAGERDLDEIITIAGQELNEKGFRADDIQIRDADTLLEVSETSKRAVILVAAWLGDARLIDNKMVELA, MLKQVEIFTDGSCLGNPGPGGYGAILRYRGREKTFSAGYTRTTNNRMELMAAIVALEALKEHCEVILSTDSQYVRQGITQWIHNWKKRGWKTADKKPVKNVDLWQRLDAALGQHQIKWEWVKGHAGHPENERCNELARAAAMNPTLEDTGYQVEV, MLKRLISIPTVAPQGDHYGEAAELLARELESLGFETVVERVPSEYQREKCRHASDNPRFIVYGRRGEGPALHFNGHYDVVPGGPGWSVTEPFKPVVKDGKLYGRGAIDMKGGIAAALGAFKALHLSGAWPQGLRVEAAFVPDEEIGGECGTGYLVNGMGVTPEYVVLPEPSGLEKPWHGHRGILWMKVRVKGRTAHASTPWHGRNAFLLASAIALDLQQALASMYAGRRSRHRIEPEESAKPTVSLGGEAGVTGGGKTNQVPGEFYFTVDRRLIPEETVSQARDELLGVLTWLSVKHGAEVEAEEVISAEPAINEPGELYEALREAASQSGRSIGEPVVCPGGLDMWYYTVKGSKALAYGPRGELAHAPDEHIDLGELRFLVETFARLPITLAVALQRRT, MLKSVLGKFSVGDKMIEVTFLGAGGGRFVTITQVRSTGGFFIKASKNIFVDPGPGALIRMIRYKLDPRKIDVLFISHRHTDHCNDAEVIVEGMTYGVTKRRGILIGSRSVVHGDDAHTPALSKYHLEALEEVHAPNPGDRFKLGNEDMVITPSVHSDPTTIGFRLKTNFGDISYIADTEYFEGLEEWHDGTRVLIASVTRPRDMKIPYHLSTDDVVYMLKKMKEKPEVLIMTHLGMKMHFAGPYKEAEYIQNVTGVKTYVAKEGFRITIGKEIHVKTLRPVRFVLEHHHHHH

Soluble on expression in E. coli, not soluble:
MLETEHANTEVHELCRQMIARIEKYGTLEGFSDSDILEVLKTIKEILEPLPCLIEIIAPVVVFGDIHGQLGDLLQFTNEVGRPPDFQYLFLGDYVDRGPNSLEVTVWLFCMKILFSKKVHLLRGNHEVRRVNTMYGFKEEMMRKRNSHLWKVFNDVFAELSICASINRKILCMHGGISPKIESWDSLTGMTKPRVHGDCEHGLIVDLIWSDPNRKDDTIQFNKMRGISTLFGKSVVDNLCTTLAIDLIIRAHEMKEVYVFHLYLSSMKGHTFEFDNRLLTVFSAPYYSGHNSNLGSVATISKSLKLRIVTLKPNKGYDRSKLDKRTLHDFEKNFQPLDENPRKNISCQFNVPPNGQKMSPFLGEYSMFAHETQFCKKDNETPVKKPYSSNQDEDHSVLDMIRKTQKGYGVEVSLKDKVMSLESIRKKLGMTTSTTPPPPRTPSPDAPLAQSPPIPRSPPSSTENA, MLEVKELVKTFGDFKAVDHVSFTIPDGKILGLIGQNGAGKTTTFRLILNFLTQDSGSVLWNGQPLNEKEYNIIGYLPEERGLYPKITIEDQLIYFASLRGKTKKEIEPKIDFWMEKFQVKGKKTDKVKSLSKGNQQKVQLIATLIHEPKLIILDEPFSGLDPVNAELLKDGIIELKNQGSCVIFSSHNMDNVEKICDHLVMLKNGRMVLDGQVHEIRQQFGRTKLFLESPLSVEEVAATAGVKEAHLRQDGVLEATLENAEVGKVLFDKATANGYIPMFNQQPPTLEEIFKMKVGGQDE, MLFFSSAMSKHKLTFTKLSDCMKYLDLAATWAEEEWGYIRNKGLEFRKKILSDLKEHTYIGTFNGQPIAMFVLFDKEMSPEFNHGRFKPPVVNELMYVYIDKPYRGLGFGKQIIDEAKQLASDSKSEYIMLDTLKPGLNRFYEKSGAKVIAENQLFSHPTDVLTIKI, MLFMIEVEIFPHRYLKASTTEKFLNKIYDLKTVERVVIHGQPLPKVITYGPARGLPVNHTERKIIHVKGVPVELTVMAGRFWITLSDDSELDKLDEICKEMFPFGYNLRVGKFLKDRPTVTDYIKYGEDGVFLINEMDRRLIGMVDPRSRMANLEHHHHHH, MLGLRRKVRIETERMTLRLPAHSDWRDWAALRAESATFLTPWEPVWSSDHLSRKAFTNRVYWAARAESQGTALPVLLIRREDQALLGAITLDNIRRGPAQSGTLGYWIGRPHARQGYMREAIQGIVHHAFTAMDVSRIEAACLPENAASRGVLEKCGFKYEGVAQSYLQIAGRWRNHVLYANLRGDRRGRTDAG, MLGVLKKVFDPNKRQLARLEKIADQVDALGPEMARLSDEQLRQKTEEFKARYQQGESLDDLLVEAFAVVREGAKRVLGLYPYKVQIMGGVVLHEGDIAEMKTGEGKTLTATMPVYLNALTGRGVHVVTVNEYLATRDATEMGKLYEFLGMTVGLNLSGMSREEKQAAYNADITYGTNNEFGFDYLRDNMVLYKEHIVQRPLYYAIIDEVDSILIDEARTPLIISGTAQKSTKLYVQANAFVRTLRKDVDYTYDEKTKSVQLTEEGINKAERAFGIDNLFDLKHVTLNHHIQLALRAHVTMQRDVDYVVQDGKVIIVDPFTGRLMHGRRYSDGLHQAIEAKEGLEIQNESMTLATITFQNYFRMYEKLAGMTGTAKTEEEEFRNIYNMRVVVIPTNRPVIREDRPDLIYRTMEGKFRAVVEDIAARHAKGQPVLVGTVAIETSEMLSEMLKKRGIPHNVLNAKNHAKEAEIIAQAGQKGAVTIATNMAGRGTDIKLGEGVKELGGLAVIGTERHESRRIDNQLRGRSGRQGDPGVSQFYLSLEDELMRRFGSESLMAMMDRLGMDDSQPIQSKMVTKAVESAQKRVEGNNFDARKQLLQYDDVLREQREIIYRQRYEVLDSDNLRGIIEKMIQSVIERVVNAHTPKEEVPEEWNLKGLVEYLNAHLLPEGDVTEADLRGKEPEEMIELIWAKVKARYDEKEAQIPPEQMREFERVVVLRAVDMKWMNHIDAMEQLRQGIHLRAYGQVDPLREYQMEGYAMFEEMIAAIEEEVATYIMKAEIHHNLERQEVAKGEAVHPKEDGEEPKRKPVRKAVRVGRNDPCPCGSGKKYKHCCGRTV, MLHITLHQLKIFESVARLLNFTHAAEELHLTQPAVSIQIKRLEEMVALPLFEQIGKRVHLTEAGKELFHYSRGITRQLADMELALDELKGLERGKLSISVVSTANYFVPNLLAKFCQRYPGITISLHVSNRENVLKQLSDNIMDLAIMGQPPEGLDITSESFMENPLVIIAPPEHPLCGQKQIPVKRLEQEIFLVREPGSGTRNAMERFFAHEKISIQKGMEADTAEAIKQAIQAGMGLGIMSLHTIRLELEAGRLKILDIQGLPIMRYWNVVHQKNKRLSNISSVFKQFLLNEAADLVALEYPHRNTT, MLIINKLNHAQKQLEKLNFIPQQADKVDFLASSSEFKARILQLINTAKSRIYLTALYFEQDEAGQQILAALYQAKLANPALDIQILVDWHRAQRGRIGEKTTSSNADWYANMKQQYNLPPEQEIAVWGVPINGREIFGVLHLKGFIFDDTILYSGASINNVYLQQFDRYRYDRYHTLENKVLADSLVTFLQQHILTDHAVNRLDNMQRPVTANIRPAIKAFRKQLTKQQYQFAEQPESNGLMLSPIAGLGRKNQLNKTIEALFYKTQNKLTICTPYFNFPRSLITRIKWLLENGKQVEIIAGDKKANDFYTPPDKKFTMAAALPYLYEKNLRAFAKRFDSYIQNKLLTIRLWKDGENTYHLKGLWVDNRYILLTGNNLNPRAWGLDAENGILLDDPKAELAEKAALELTQIRTFTQELSHYSDLETIKDYPLEVQKLLKKFGRVKLDKIIKMLLLEHHHHHH, MLIKVKTLTGKEIELDIEPNDRVERIKEKVEEKEGIPPPQQRLIFAGKQMNDDKTAADYKVLGGSVLHLVLALRGGF, MLIPGAHYRGDVPMYPASVVKLFYLVACHEWLHSGMLQPDAELERAMRDMIVDSSNDATSLVVDMLTGTTSGPVLPPEPFRTWQYQRNIVNRYFQSLGWPELTQINVNQKTWCEGPYGREQEFVGRDRQNANRLTTNATAKLIHSIVGGVAVSASASQGMMELMERSLDPELLAQDPENQVQGFLGEGLPPGAKLWSKAGLTSWVRHDAAYIELPDRCPYTLVVFMENSTASKNTEVLPFISRQIASGILEHHHHHH, MLIREIEKKDNEQVETLIRTCLIEFGADKPGCAWTDPDLGRFYEIYQDKKSKYWVVEEEGKIIAGCGIGPLNGAENVCELQKMYSYKEARGTGIAKDLLGLALDFAKKYYDKCYLETFSNMTAANKFYVKNGFKKLEKPLIETDHYACDVWYIKEL, MLIWSPSVRIAANIRTDNPNSLKRNANMPQLTLDKTDIKILQVLQENGRLTNVELSERVALSPSPCLRRLKQLEDAGIVRQYAALLSPESVNLGLQAFIRVSIRKAKDAREDFAASVRKWPEVLSCFALTGETDYLLQAFFTDMNAFSHFVLDTLLSHHGVQDAQSSFVLKEIKHTTSLPLNHLLKE, MLKGHLHSVESLGTVDGPGLRYILFTQGCLLRCLYCHNPDTWKISEPSREVTVDEMVNEILPYKPYFDASGGGVTVSGGEPLLQMPFLEKLFAELKENGVHTCLDTSAGCANDTKAFQRHFEELQKHTDLILLDIKHIDNDKHIRLTGKPNTHILNFARKLSDMKQPVWIRHVLVPGYSDDKDDLIKLGEFINSLDNVEKFEILPYHQLGVHKWKTLGIAYELEDVEAPDDEAVKAAYRYVNFKGKIPVEL, MLKIIPGATGYFNKTLNSNQFDNEDAIKDKLDNRGSIKGKLNNIYGKSIDYAALRHRDIIIAKIDLFIQRITHNLWHARKKMCFLEHHHHHH, MLKKILLSLVVFYQRFISPLTPPTCRFYPTCSQYTREAIEYHGALKGLYLGVRRILKCHPLHKGGFDPVPLKKDKNSKTTHHHLEHHHHHH
